# Results taken from paper PMC4259493.
# Where two headings read alike, the source gives them in different places.
# Columns and labels:
# Test in all cases: MST
# [1] = molecular target: α-actinin-2 wild-type, full length (human) (UniProt P35609)
# [2] = molecular target: α-actinin-2 calmodulin-like domain (CAMD, EF1-4) (human)
# [3] = molecular target: α-actinin-2 wild-type, full length (human) (UniProt P35609); remark: listed apart in the source
# α-actinin-2 wild-type, full length (human), sequence (P35609 whole entry, the tested form may be a part): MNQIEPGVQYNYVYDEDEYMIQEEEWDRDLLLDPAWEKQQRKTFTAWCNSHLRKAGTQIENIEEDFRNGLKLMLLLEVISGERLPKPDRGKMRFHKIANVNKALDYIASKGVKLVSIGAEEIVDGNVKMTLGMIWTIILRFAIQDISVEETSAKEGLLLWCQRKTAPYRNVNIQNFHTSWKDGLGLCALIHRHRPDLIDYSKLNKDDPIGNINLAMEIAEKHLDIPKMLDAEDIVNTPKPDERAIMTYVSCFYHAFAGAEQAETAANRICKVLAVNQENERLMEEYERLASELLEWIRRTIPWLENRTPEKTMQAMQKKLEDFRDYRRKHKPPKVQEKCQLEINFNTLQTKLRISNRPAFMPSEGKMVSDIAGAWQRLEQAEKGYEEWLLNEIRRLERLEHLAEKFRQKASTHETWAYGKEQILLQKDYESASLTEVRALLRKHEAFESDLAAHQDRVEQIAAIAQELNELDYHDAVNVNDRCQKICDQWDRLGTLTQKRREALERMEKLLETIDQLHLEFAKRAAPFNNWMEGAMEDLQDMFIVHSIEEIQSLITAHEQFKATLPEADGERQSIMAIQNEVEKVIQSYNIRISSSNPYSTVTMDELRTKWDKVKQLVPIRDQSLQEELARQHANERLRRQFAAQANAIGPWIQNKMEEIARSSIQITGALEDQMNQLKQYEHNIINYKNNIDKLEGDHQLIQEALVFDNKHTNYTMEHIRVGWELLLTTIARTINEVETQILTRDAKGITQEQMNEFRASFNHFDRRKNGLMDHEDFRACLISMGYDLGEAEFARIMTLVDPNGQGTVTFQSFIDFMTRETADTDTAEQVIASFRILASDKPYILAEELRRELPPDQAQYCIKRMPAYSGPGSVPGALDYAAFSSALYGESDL
# α-actinin-2 calmodulin-like domain (CAMD, EF1-4) (human), sequence (P35609 whole entry, the tested form may be a part): as above
# titin Zr-7 construct (amino acids Lys 692 - Arg 740), sequence (Q8WZ42 692-740): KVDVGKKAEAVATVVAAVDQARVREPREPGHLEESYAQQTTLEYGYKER
substance,measurement,setting,value
titin Zr-7 construct (amino acids Lys 692 - Arg 740) (from UniProt Q8WZ42 692-740) (domain or fragment),Kd,[1],380 nM
same,Kd,[2],240 nM
same,Kd,[3],2900 nM
